The record followed here is US20140219956A1.

For this assay, the target named is TROP-2 (EGP-1, epithelial glycoprotein-1) (human) (UniProt P09758). Put plainly: cell-based or functional assay.
Chain of TROP-2 (EGP-1, epithelial glycoprotein-1) (human) (P09758 27-323): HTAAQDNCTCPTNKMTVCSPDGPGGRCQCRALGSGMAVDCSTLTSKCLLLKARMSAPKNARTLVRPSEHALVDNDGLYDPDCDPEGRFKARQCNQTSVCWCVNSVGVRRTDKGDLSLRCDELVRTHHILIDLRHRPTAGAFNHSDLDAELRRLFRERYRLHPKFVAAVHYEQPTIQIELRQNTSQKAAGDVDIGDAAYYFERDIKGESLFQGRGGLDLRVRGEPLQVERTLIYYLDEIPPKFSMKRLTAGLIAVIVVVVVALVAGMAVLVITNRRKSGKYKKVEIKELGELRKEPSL

B1: hRS7 (humanized anti-TROP-2 / anti-EGP-1 antibody), unconjugated IgG (antibody, INN chains, looked up, V domains shown)
VH: QVQLQQSGSELKKPGASVKVSCKASGYTFTNYGMNWVKQAPGQGLKWMGWINTYTGEPTYTDDFKGRFAFSLDTSVSTAYLQISSLKADDTAVYFCARGGFGSSYWYFDVWGQGSLVTVSS
VL: DIQLTQSPSSLSASVGDRVSITCKASQDVSIAVAWYQQKPGKAPKLLIYSASYRYTGVPDRFSGSGSGTDFTLTISSLQPEDFAVYYCQQHYITPLTFGAGTKVEIK
Turning to B1, the ADCC, specific lysis of BxPC-3 target cells (PBMC effectors, effector to target ratio 100:1, 33.3 nM) came out at 8.5%.
